Data reported in IntAct's records for PubMed 31515488.

B1: Nucleoside diphosphate kinase homolog 5 (Homo sapiens), P56597 (parent)
chain: MEISMPPPQIYVEKTLAIIKPDIVDKEEEIQDIILRSGFTIVQRRKLRLSPEQCSNFYVEKYGKMFFPNLTAYMSSGPLVAMILARHKAISYWLELLGPNNSLVAKETHPDSLRAIYGTDDLRNALHGSNDFAAAEREIRFMFPEVIVEPIPIGQAAKDYLNLHIMPTLLEGLTELCKQKPADPLIWLADWLLKNNPNKPKLCHHPIVEEPY
B2: Microtubule-associated tumor suppressor candidate 2 (Homo sapiens), Q5JR59-3 (parent)
chain: MGHCCCKPYNCLQCLDKTNESALVKEKELSIELANIRDEVAFHTAKCEKLQKEKEELERRFEDEVKRLGWQQQAELQELEERLQLQFEAEMARLQEEHGDQLLSIRCQHQEQVEDLTASHDAALLEMENNHTVAITILQDDHDHKVQELMSTHELEKKELEENFEKLRLSLQDQVDTLTFQSQSLRDRARRFEEALRKNTEEQLEIALAPYQHLEEDMKSLKQVLEMKNQQIHEQEKKILELEKLAEKNIILEEKIQVLQQQNEDLKARIDQNTVVTRQLSEENANLQEYVEKETQEKKRLSRTNEELLWKLQTGDPTSPIKLSPTSPVYRGSSSGPSSPARVSTTPR
partner: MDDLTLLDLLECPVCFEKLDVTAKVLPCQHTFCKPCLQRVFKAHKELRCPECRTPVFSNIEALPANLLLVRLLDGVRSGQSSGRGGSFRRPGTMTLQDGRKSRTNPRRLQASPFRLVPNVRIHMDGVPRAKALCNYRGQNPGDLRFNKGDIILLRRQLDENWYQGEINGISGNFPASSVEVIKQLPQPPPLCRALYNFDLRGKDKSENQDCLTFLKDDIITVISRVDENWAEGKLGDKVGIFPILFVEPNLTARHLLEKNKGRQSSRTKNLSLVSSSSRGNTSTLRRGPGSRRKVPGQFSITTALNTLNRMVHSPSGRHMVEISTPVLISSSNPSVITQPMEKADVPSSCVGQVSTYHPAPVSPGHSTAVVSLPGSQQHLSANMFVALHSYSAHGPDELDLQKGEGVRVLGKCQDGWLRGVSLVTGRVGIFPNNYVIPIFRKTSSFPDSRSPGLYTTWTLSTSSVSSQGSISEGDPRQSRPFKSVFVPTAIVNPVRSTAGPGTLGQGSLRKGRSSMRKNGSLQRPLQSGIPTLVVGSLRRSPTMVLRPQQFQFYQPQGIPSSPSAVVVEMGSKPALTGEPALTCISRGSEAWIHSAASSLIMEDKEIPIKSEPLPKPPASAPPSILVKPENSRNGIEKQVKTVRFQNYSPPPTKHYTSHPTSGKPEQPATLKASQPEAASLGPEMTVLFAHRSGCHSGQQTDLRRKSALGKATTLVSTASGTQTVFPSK
B3: Notch homolog 2 N-terminal-like protein A (Homo sapiens), Q7Z3S9 (parent)
chain: MCVTYHNGTGYCKCPEGFLGEYCQHRDPCEKNRCQNGGTCVAQAMLGKATCRCASGFTGEDCQYSTSHPCFVSRPCLNGGTCHMLSRDTYECTCQVGFTGKECQWTDACLSHPCANGSTCTTVANQFSCKCLTGFTGQKCETDVNECDIPGHCQHGGTCLNLPGSYQCQCLQGFTGQYCDSLYVPCAPSPCVNGGTCRQTGDFTFECNCLPETVRRGTELWERDREVWNGKEHDEN
partner: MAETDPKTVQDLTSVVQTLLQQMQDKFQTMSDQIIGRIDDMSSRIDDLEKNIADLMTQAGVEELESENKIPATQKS
B4: Spermatogenesis-associated protein 2 (Homo sapiens), Q9UM82 (parent)
chain: MGKPSSMDTKFKDDLFRKYVQFHESKVDTTTSRQRPGSDECLRVAASTLLSLHKVDPFYRFRLIQFYEVVESSLRSLSSSSLRALHGAFSMLETVGINLFLYPWKKEFRSIKTYTGPFVYYVKSTLLEEDIRAILSCMGYTPELGTAYKLRELVETLQVKMVSFELFLAKVECEQMLEIHSQVKDKGYSELDIVSERKSSAEDVRGCSDALRRRAEGREHLTASMSRVALQKSASERAAKDYYKPRVTKPSRSVDAYDSYWESRKPPLKASLSLRKEPVATDVGDDLKDEIIRPSPSLLTMASSPHGSPDVLPPASPSNGPALLRGTYFSTQDDVDLYTDSEPRATYRRQDALRPDVWLLRNDAHSLYHKRSPPAKESALSKCQSCGLSCSSSLCQRCDSLLTCPPASKPSAFPSKASTHDSLAHGASLREKYPGQTQGLDRLPHLHSKSKPSTTPTSRCGFCNRPGATNTCTQCSKVSCDACLSAYHYDPCYKKSELHKFMPNNQLNYKSTQLSHLVYR
B5: Microtubule-associated tumor suppressor candidate 2 (Homo sapiens), Q5JR59-3 (parent)
chain: B2 chain
partner: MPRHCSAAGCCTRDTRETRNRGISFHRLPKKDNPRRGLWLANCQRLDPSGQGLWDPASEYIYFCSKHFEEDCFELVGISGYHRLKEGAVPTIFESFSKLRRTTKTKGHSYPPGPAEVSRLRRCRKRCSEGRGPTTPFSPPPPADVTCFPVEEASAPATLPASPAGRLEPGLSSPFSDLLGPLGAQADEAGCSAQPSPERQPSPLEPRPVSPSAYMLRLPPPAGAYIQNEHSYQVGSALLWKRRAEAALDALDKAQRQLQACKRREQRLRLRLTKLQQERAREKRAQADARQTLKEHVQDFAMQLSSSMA
B6: RUN and FYVE domain-containing protein 1 (Homo sapiens), Q96T51-2 (parent)
chain: MMEERANLMHMMKLSIKVLLQSALSLGRSLDADHAPLQQFFVVMEHCLKHGLKVKKSFIGQNKSFFGPLELVEKLCPEASDIATSVRNLPELKTAVGRGRAWLYLALMQKKLADYLKVLIDNKHLLSEFYEPEALMMEEEGMVIVGLLVGLNVLDANLCLKGEDLDSQVGVIDFSLYLKDVQDLDGGKEHERITDVLDQKNYVEELNRHLSCTVGDLQTKIDGLEKTNSKLQEELSAATDRICSLQEEQQQLREQNELIRERSEKSVEITKQDTKVELETYKQTRQGLDEMYSDVWKQLKEEKKVRLELEKELELQIGMKTEMEIAMKLLEKDTHEKQDTLVALRQQLEEVKAINLQMFHKAQNAESSLQQKNEAITSFEGKTNQVMSSMKQMEERLQHSERARQGAEERSHKLQQELGGRIGALQLQLSQLHEQCSSLEKELKSEKEQRQALQRELQHEKDTSSLLRMELQQVEGLKKELRELQDEKAELQKICEEQEQALQEMGLHLSQSKLKMEDIKEVNQALKGHAWLKDDEATHCRQCEKEFSISRRKHHCRNCGHIFCNTCSSNELALPSYPKPVRVCDSCHTLLLQRCSSTAS
partner: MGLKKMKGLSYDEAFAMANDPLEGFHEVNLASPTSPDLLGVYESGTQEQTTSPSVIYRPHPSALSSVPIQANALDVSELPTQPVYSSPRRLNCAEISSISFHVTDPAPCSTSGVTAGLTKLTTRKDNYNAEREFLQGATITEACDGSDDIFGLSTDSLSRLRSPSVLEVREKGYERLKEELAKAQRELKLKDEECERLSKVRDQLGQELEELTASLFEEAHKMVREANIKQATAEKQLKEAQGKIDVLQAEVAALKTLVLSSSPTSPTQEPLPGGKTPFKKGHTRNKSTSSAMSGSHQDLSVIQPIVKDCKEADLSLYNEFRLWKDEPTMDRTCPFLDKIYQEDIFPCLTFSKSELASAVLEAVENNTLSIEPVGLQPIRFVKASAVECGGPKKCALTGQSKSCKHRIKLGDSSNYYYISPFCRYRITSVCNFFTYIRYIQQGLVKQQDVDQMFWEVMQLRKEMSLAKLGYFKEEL
B7: Zyxin (Homo sapiens), Q15942 (parent)
chain: MAAPRPSPAISVSVSAPAFYAPQKKFGPVVAPKPKVNPFRPGDSEPPPAPGAQRAQMGRVGEIPPPPPEDFPLPPPPLAGDGDDAEGALGGAFPPPPPPIEESFPPAPLEEEIFPSPPPPPEEEGGPEAPIPPPPQPREKVSSIDLEIDSLSSLLDDMTKNDPFKARVSSGYVPPPVATPFSSKSSTKPAAGGTAPLPPWKSPSSSQPLPQVPAPAQSQTQFHVQPQPQPKPQVQLHVQSQTQPVSLANTQPRGPPASSPAPAPKFSPVTPKFTPVASKFSPGAPGGSGSQPNQKLGHPEALSAGTGSPQPPSFTYAQQREKPRVQEKQHPVPPPAQNQNQVRSPGAPGPLTLKEVEELEQLTQQLMQDMEHPQRQNVAVNELCGRCHQPLARAQPAVRALGQLFHIACFTCHQCAQQLQGQQFYSLEGAPYCEGCYTDTLEKCNTCGEPITDRMLRATGKAYHPHCFTCVVCARPLEGTSFIVDQANRPHCVPDYHKQYAPRCSVCSEPIMPEPGRDETVRVVALDKNFHMKCYKCEDCGKPLSIEADDNGCFPLDGHVLCRKCHTARAQT
partner: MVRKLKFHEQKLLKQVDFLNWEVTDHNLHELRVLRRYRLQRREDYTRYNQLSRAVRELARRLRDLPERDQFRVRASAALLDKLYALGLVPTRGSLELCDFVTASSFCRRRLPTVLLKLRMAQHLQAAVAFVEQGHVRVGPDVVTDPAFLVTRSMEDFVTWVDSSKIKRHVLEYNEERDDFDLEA
B8: IQ motif and ubiquitin-like domain-containing protein (Homo sapiens), Q8NA54 (parent)
chain: MSNQQEKYEAQNIVNSTEESDDAFDTVTIPVPSEEPQESDQTEEHESGIEQFSESHAIHVEEQSDQSFSSLEPDNEQLMEEVISPRQVSYTPQHHEKQYAMQRPNDDSLAFLDKIKSVKESLQESVEDSLATVKVVLIPVGQEIVIPFKVDTILKYLKDHFSHLLGIPHSVLQIRYSGKILKNNETLVQHGVKPQEIVQVEIFSTNPDLYPVRRIDGLTDVSQIITVTVQTGLDQYQQVPVEIVKSDFHKPFLGGFRHKVTGVEYHNAGTQTVPKRIPERLSIFCRDTQTVFQKKNLQQTTNTTSTQMTNIGVYVSNMTDKLVTPGKYFSAAEYHAQRLKAVIVIQTYYRQWHAKIFVENLRRQKSLRLEWETQQELRKIREKEEWIKLDYHRRHNPKTNEDFEFLYNALEFWRQEELTRINQSFTGAERKAALCELLEKETQIIASIGRHRYIAYMANQEAAIQAFLDKCSAPKIWRTPNGKTIEMDTQFTIRARELQNIYKCIMLKNISQDERLDVLLTLKHTVKEHECKLTQEILELIDREVDLMMRGVKHHNLEGLRKRIATLFFHYIKTPLFNPEVAKYLKVPQDPLKFYKKIYFCHSCQLYLPSTEFSVSSTSRRIYRCRNCINLQNEAQKRESFLKYKCLLQQLYYTEADYEDDSKIAFLMQLQDIQYLTENIWASQSVLSACDNLSDLVMVRWNKSLEWSPWNCILLTKDEAAAHLKLTSIEEGYERSFIHKIKHKHILAKNYFSQVPVLASFILDDGEIDEIRWKYHSDTTPKIIESQRPPH
partner: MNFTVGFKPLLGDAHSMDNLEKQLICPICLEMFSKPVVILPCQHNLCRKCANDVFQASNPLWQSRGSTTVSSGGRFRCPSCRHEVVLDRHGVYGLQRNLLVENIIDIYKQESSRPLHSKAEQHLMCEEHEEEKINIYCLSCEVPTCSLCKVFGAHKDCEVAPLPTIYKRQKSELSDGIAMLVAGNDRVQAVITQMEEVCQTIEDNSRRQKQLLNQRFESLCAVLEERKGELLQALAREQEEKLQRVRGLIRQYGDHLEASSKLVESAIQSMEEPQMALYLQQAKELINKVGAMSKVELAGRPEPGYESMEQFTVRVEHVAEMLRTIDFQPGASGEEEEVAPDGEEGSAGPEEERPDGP

Variants of: B1
Conditions: with dydc1_human DYDC1, Q8WWB3
Chain of dydc1_human DYDC1, Q8WWB3 (Q8WWB3 whole entry): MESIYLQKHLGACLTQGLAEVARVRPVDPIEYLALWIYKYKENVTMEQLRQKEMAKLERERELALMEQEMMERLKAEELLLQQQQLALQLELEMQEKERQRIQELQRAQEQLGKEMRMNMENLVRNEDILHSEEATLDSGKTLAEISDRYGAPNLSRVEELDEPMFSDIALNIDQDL

Row | Variant | effect of a mutation on the interaction
1 | N198D | with no effect

Variants of: B2
Conditions: with sh3r2_human SH3RF2, Q8TEC5

Row | Variant | effect of a mutation on the interaction
2 | A89V | with no effect

Variants of: B3
Conditions: with hsbp1_human HSBP1, O75506

Row | Variant | effect of a mutation on the interaction
3 | R74Q | with no effect
4 | A115T | with no effect

Variants of: B4
Conditions: with traf2_human TRAF2, Q12933
Chain of traf2_human TRAF2, Q12933 (Q12933 whole entry): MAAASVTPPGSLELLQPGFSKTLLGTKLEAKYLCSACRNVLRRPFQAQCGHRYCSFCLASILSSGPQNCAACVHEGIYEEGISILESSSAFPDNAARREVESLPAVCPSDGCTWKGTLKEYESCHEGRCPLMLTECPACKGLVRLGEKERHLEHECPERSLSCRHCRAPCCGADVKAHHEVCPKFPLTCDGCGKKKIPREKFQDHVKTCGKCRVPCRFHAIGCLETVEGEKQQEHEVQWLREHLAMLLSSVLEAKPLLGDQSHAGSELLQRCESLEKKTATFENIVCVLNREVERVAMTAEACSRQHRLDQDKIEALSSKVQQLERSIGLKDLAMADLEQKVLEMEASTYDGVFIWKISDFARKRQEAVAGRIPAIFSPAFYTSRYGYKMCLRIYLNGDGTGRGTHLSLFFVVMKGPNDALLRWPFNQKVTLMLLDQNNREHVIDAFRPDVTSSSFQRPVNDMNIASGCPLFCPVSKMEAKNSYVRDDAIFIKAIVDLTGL

Row | Variant | effect of a mutation on the interaction
5 | L443F | disrupting interaction strength

Variants of: B5
Conditions: with thap7_human THAP7, Q9BT49

Row | Variant | effect of a mutation on the interaction
6 | A89V | with no effect

Variants of: B6
Conditions: with rab3i_human RAB3IP

Row | Variant | effect of a mutation on the interaction
7 | C159F | with no effect

Variants of: B7
Conditions: with imp3_human IMP3, Q9NV31

Row | Variant | effect of a mutation on the interaction
8 | R489W | with no effect
9 | R563Q | with no effect

Variants of: B8
Conditions: with tri54_human TRIM54, Q9BYV2

Row | Variant | effect of a mutation on the interaction
10 | V126M | with no effect
11 | I501F | disrupting interaction strength
